Measured values: patent publication US7462701

Biological target: T1, Gly-Asp-Asp-Asp-Asp-Lys-β-naphthylamide
T1 chain: GDDDDK

B1: CBM-enterokinase produced transiently in lettuce and purified on cellulose (protein)
chain: MVATAKYGTPVIDGEIDEIWNTTEEIETKAVAMGSLDKNATAKVRVLWDENYLYVLAIVKDPVLNKDNSNPWEQDSVEIFIDENNHKTGYYEDDDAQFRVNYMNEQTFGTGGSPARFKTAVKLIEGGYIVEAAIKWKTIKPTPNTVIGFNIQVNDANEKGQRVGIISWSDPTNNSWRDPSKFGNLRLIK
  Enterokinase activity (rate of β-naphthylamine formation): Enterokinase activity was measured to be 442.7 cps/min/µg compared to blank 0.0001 cps/min/µg
